No end group written: not given here.
B1: peptide 65 (18 mer of E1 of HCV strain H77) (peptide)
peptide: ALYVGDLCGSVFLVGQLF
modifications: not fully specified
B2: peptide 62 (18 mer of E1 of HCV strain H77) (peptide)
peptide: LPTTQLRRHIDLLVGSAT
B3: peptide 72 (18 mer of E1 of HCV strain H77) (peptide)
peptide: MMNWSPTAALVVAQLLRI
B4: peptide 67 (18 mer of E1 of HCV strain H77) (peptide)
peptide: GQLFTFSPRHHWTTQDCN
B5: peptide 66 (18 mer of E1 of HCV strain H77) (peptide)
peptide: CGSVFLVGQLFTFSPRHH
B6: peptide 79 (18 mer of E1 of HCV strain H77) (peptide)
peptide: LVVLLLFAGVDAETHVTG
B7: peptide 57 (18 mer of E1 of HCV strain H77) (peptide)
peptide: DAILHTPGCVPCVREGNA
B8: peptide 78 (18 mer of E1 of HCV strain H77) (peptide)
peptide: VGNWAKVLVVLLLFAGVD
B9: peptide 55 (18 mer of E1 of HCV strain H77) (peptide)
peptide: TNDCPNSSVVYEAADAIL
B10: peptide 53 (18 mer of E1 of HCV strain H77) (peptide)
peptide: SAYQVRNSSGLYHVTNDC
B11: peptide 74 (18 mer of E1 of HCV strain H77) (peptide)
peptide: LLRIPQAIMDMIAGAHWG
B12: peptide 64 (18 mer of E1 of HCV strain H77) (peptide)
peptide: GSATLCSALYVGDLCGSV
B13: peptide 54 (18 mer of E1 of HCV strain H77) (peptide)
peptide: SSGLYHVTNDCPNSSIVY
B14: peptide 58 (18 mer of E1 of HCV strain H77) (peptide)
peptide: GCVPCVREGNASRCWVAV
B15: peptide 61 (18 mer of E1 of HCV strain H77) (peptide)
peptide: VATRDGKLPTTQLRRHID
B16: peptide 56 (18 mer of E1 of HCV strain H77) (peptide)
peptide: SIVYEAADAILHTPGCVP
B17: peptide 75 (18 mer of E1 of HCV strain H77) (peptide)
peptide: IMDMIAGAHWGVLAGIKY
B18: peptide 68 (18 mer of E1 of HCV strain H77) (peptide)
peptide: PRHHWTTQDCNCSIYPGH
B19: peptide 52 (18 mer of E1 of HCV strain H77) (peptide)
peptide: SCLTVPASAYQVRNSSGL
B20: peptide 77 (18 mer of E1 of HCV strain H77) (peptide)
peptide: GIKYFSMVGNWAKVLVVL
B21: peptide 69 (18 mer of E1 of HCV strain H77) (peptide)
peptide: QDCNCSIYPGHITGHRMA
modifications: not fully specified; cysteine pairing not given here
B22: peptide 76 (18 mer of E1 of HCV strain H77) (peptide)
peptide: AHWGVLAGIKYFSMVGNW
B23: peptide 73 (18 mer of E1 of HCV strain H77) (peptide)
peptide: AALVVAQLLRIPQAIMDM
B24: peptide 63 (18 mer of E1 of HCV strain H77) (peptide)
peptide: RHIDLLVGSATLCSALYV

These binders were tested against envelope glycoproteins E1 and E2 of the H77 strain of HCV, on HIV-core pseudotype virions (hepatitis C virus strain H77, UniProt P27958) (assay: cell-based or functional assay).
B1 was tested, and the “Percent Inhibition of infection by the H77-E1E2 pseudotype (luciferase), peptide marked by asterisk: actual concentration 10 µM or less” value was 22.9%.
B2 was tested, and the “Percent Inhibition of infection by the H77-E1E2 pseudotype (luciferase), peptide at about 25 µM” value (from here on “Percent Inhibition of infection … at about 25 µM”) was -1.96%.
For B3, the “Percent Inhibition of infection … at about 25 µM” value was 33.4%.
B4 was tested, and the “Percent Inhibition of infection … at about 25 µM” value was 43.2%.
With B5 the “Percent Inhibition of infection … at about 25 µM” value was 79.5%.
In the case of B6, the “Percent Inhibition of infection … at about 25 µM” value is reported as 10.6%.
For B7, the “Percent Inhibition of infection … at about 25 µM” value was -49.4%.
With B8 the “Percent Inhibition of infection by the H77-E1E2 pseudotype (luciferase), peptide marked by asterisk: actual concentration 10 µM or less” value was -21.1%.
With B9 the “Percent Inhibition of infection … at about 25 µM” value was 1.12%.
In the case of B10, the “Percent Inhibition of infection … at about 25 µM” value is reported as 0.23%.
With B11 the “Percent Inhibition of infection … at about 25 µM” value was 71.1%.
With B12 the “Percent Inhibition of infection … at about 25 µM” value was 0.55%.
In the case of B13, the “Percent Inhibition of infection … at about 25 µM” value is reported as 99.9%.
In the case of B14, the “Percent Inhibition of infection … at about 25 µM” value is reported as -4.42%.
B15 was tested, and the “Percent Inhibition of infection … at about 25 µM” value was -30.8%.
With B16 the “Percent Inhibition of infection … at about 25 µM” value was 42.3%.
For B17, the “Percent Inhibition of infection … at about 25 µM” value was 0.32%.
For B18, the “Percent Inhibition of infection … at about 25 µM” value was 31.3%.
With B19 the “Percent Inhibition of infection … at about 25 µM” value was -17.2%.
In the case of B20, the “Percent Inhibition of infection … at about 25 µM” value is reported as 50.4%.
B21 was tested, and the “Percent Inhibition of infection by the H77-E1E2 pseudotype (luciferase), peptide marked by asterisk: actual concentration 10 µM or less” value was -73.1%.
In the case of B22, the “Percent Inhibition of infection … at about 25 µM” value is reported as 15.3%.
B23 was tested, and the “Percent Inhibition of infection … at about 25 µM” value was 11.5%.
For B24, the “Percent Inhibition of infection … at about 25 µM” value was 49.1%.

From patent publication US20110130328A1 (THE ADMINISTRATORS OF THE TULANE EDUCATIONAL FUND, published 2011)
